{"source": "patent US20170008943A1", "about": "(Novo Nordisk, published 2017)", "binders": {"B1": {"name": "N^ε28-[(4S)-4-[[(4S)-4-[[(4S)-4-[[(4S)-4-acetamido-4-carboxybutanoyl]amino]-4-carboxybutanoyl]amino]-4-carboxybutanoyl]amino]-4-carboxybutanoyl]-[Imp1, Aib2, … (peptide)", "peptide": "[Desaminohistidyl][Aib]HGTFTSDYSKYLESRRAQDFVAWLLK([γGlu-γGlu-γGlu-γGlu-Ac])T-OH", "SMILES": "CC(=O)N[C@@H](CCC(=O)N[C@@H](CCC(=O)N[C@@H](CCC(=O)N[C@@H](CCC(=O)NCCCC[C@H](NC(=O)[C@H](CC(C)C)NC(=O)[C@H](CC(C)C)NC(=O)[C@H](Cc1c[nH]c2ccccc12)NC(=O)[C@H](C)NC(=O)[C@@H](NC(=O)[C@H](Cc1ccccc1)NC(=O)[C@H](CC(=O)O)NC(=O)[C@H](CCC(N)=O)NC(=O)[C@H](C)NC(=O)[C@H](CCCNC(=N)N)NC(=O)[C@H](CCCNC(=N)N)NC(=O)[C@H](CO)NC(=O)[C@H](CCC(=O)O)NC(=O)[C@H](CC(C)C)NC(=O)[C@H](Cc1ccc(O)cc1)NC(=O)[C@H](CCCCN)NC(=O)[C@H](CO)NC(=O)[C@H](Cc1ccc(O)cc1)NC(=O)[C@H](CC(=O)O)NC(=O)[C@H](CO)NC(=O)[C@@H](NC(=O)[C@H](Cc1ccccc1)NC(=O)[C@@H](NC(=O)CNC(=O)[C@H](Cc1c[nH]cn1)NC(=O)C(C)(C)NC(=O)CCc1c[nH]cn1)[C@@H](C)O)[C@@H](C)O)C(C)C)C(=O)N[C@H](C(=O)O)[C@@H](C)O)C(=O)O)C(=O)O)C(=O)O)C(=O)O", "notes": "Imp and Aib written X under substitutions"}, "B2": {"name": "N^ε24-[(4S)-4-[[(4S)-4-[[(4S)-4-[[(4S)-4-acetamido-4-carboxybutanoyl]amino]-4-carboxybutanoyl]amino]-4-carboxybutanoyl]amino]-4-carboxybutanoyl]-[Imp1, His3, … (peptide)", "peptide": "[Desaminohistidyl]SHGTFTSDYSKYLESRRAQEFVK([γGlu-γGlu-γGlu-γGlu-Ac])WLLST-OH", "SMILES": "CC(=O)N[C@@H](CCC(=O)N[C@@H](CCC(=O)N[C@@H](CCC(=O)N[C@@H](CCC(=O)NCCCC[C@H](NC(=O)[C@@H](NC(=O)[C@H](Cc1ccccc1)NC(=O)[C@H](CCC(=O)O)NC(=O)[C@H](CCC(N)=O)NC(=O)[C@H](C)NC(=O)[C@H](CCCNC(=N)N)NC(=O)[C@H](CCCNC(=N)N)NC(=O)[C@H](CO)NC(=O)[C@H](CCC(=O)O)NC(=O)[C@H](CC(C)C)NC(=O)[C@H](Cc1ccc(O)cc1)NC(=O)[C@H](CCCCN)NC(=O)[C@H](CO)NC(=O)[C@H](Cc1ccc(O)cc1)NC(=O)[C@H](CC(=O)O)NC(=O)[C@H](CO)NC(=O)[C@@H](NC(=O)[C@H](Cc1ccccc1)NC(=O)[C@@H](NC(=O)CNC(=O)[C@H](Cc1c[nH]cn1)NC(=O)[C@H](CO)NC(=O)CCc1c[nH]cn1)[C@@H](C)O)[C@@H](C)O)C(C)C)C(=O)N[C@@H](Cc1c[nH]c2ccccc12)C(=O)N[C@@H](CC(C)C)C(=O)N[C@@H](CC(C)C)C(=O)N[C@@H](CO)C(=O)N[C@H](C(=O)O)[C@@H](C)O)C(=O)O)C(=O)O)C(=O)O)C(=O)O", "notes": "Imp written X under substitutions"}, "B3": {"name": "N^ε24-[(4S)-4-[[(4S)-4-[[(4S)-4-[[(4S)-4-acetamido-4-carboxybutanoyl]amino]-4-carboxybutanoyl]amino]-4-carboxybutanoyl]amino]-4-carboxybutanoyl]-[Imp1, His3, … (peptide)", "peptide": "[Desaminohistidyl]SHGTFTSDYSKYLESRRAQDFVK([γGlu-γGlu-γGlu-γGlu-Ac])WLLST-OH", "SMILES": "CC(=O)N[C@@H](CCC(=O)N[C@@H](CCC(=O)N[C@@H](CCC(=O)N[C@@H](CCC(=O)NCCCC[C@H](NC(=O)[C@@H](NC(=O)[C@H](Cc1ccccc1)NC(=O)[C@H](CC(=O)O)NC(=O)[C@H](CCC(N)=O)NC(=O)[C@H](C)NC(=O)[C@H](CCCNC(=N)N)NC(=O)[C@H](CCCNC(=N)N)NC(=O)[C@H](CO)NC(=O)[C@H](CCC(=O)O)NC(=O)[C@H](CC(C)C)NC(=O)[C@H](Cc1ccc(O)cc1)NC(=O)[C@H](CCCCN)NC(=O)[C@H](CO)NC(=O)[C@H](Cc1ccc(O)cc1)NC(=O)[C@H](CC(=O)O)NC(=O)[C@H](CO)NC(=O)[C@@H](NC(=O)[C@H](Cc1ccccc1)NC(=O)[C@@H](NC(=O)CNC(=O)[C@H](Cc1c[nH]cn1)NC(=O)[C@H](CO)NC(=O)CCc1c[nH]cn1)[C@@H](C)O)[C@@H](C)O)C(C)C)C(=O)N[C@@H](Cc1c[nH]c2ccccc12)C(=O)N[C@@H](CC(C)C)C(=O)N[C@@H](CC(C)C)C(=O)N[C@@H](CO)C(=O)N[C@H](C(=O)O)[C@@H](C)O)C(=O)O)C(=O)O)C(=O)O)C(=O)O", "notes": "as for B2"}, "B4": {"name": "N^ε24-[(4S)-4-[[(4S)-4-[[(4S)-4-[[(4S)-4-acetamido-4-carboxybutanoyl]amino]-4-carboxybutanoyl]amino]-4-carboxybutanoyl]amino]-4-carboxybutanoyl]-[Imp1, His3, … (peptide)", "peptide": "[Desaminohistidyl]SHGTFTSDYSKYLESRRAQEFVK([γGlu-γGlu-γGlu-γGlu-Ac])WLLET-OH", "SMILES": "CC(=O)N[C@@H](CCC(=O)N[C@@H](CCC(=O)N[C@@H](CCC(=O)N[C@@H](CCC(=O)NCCCC[C@H](NC(=O)[C@@H](NC(=O)[C@H](Cc1ccccc1)NC(=O)[C@H](CCC(=O)O)NC(=O)[C@H](CCC(N)=O)NC(=O)[C@H](C)NC(=O)[C@H](CCCNC(=N)N)NC(=O)[C@H](CCCNC(=N)N)NC(=O)[C@H](CO)NC(=O)[C@H](CCC(=O)O)NC(=O)[C@H](CC(C)C)NC(=O)[C@H](Cc1ccc(O)cc1)NC(=O)[C@H](CCCCN)NC(=O)[C@H](CO)NC(=O)[C@H](Cc1ccc(O)cc1)NC(=O)[C@H](CC(=O)O)NC(=O)[C@H](CO)NC(=O)[C@@H](NC(=O)[C@H](Cc1ccccc1)NC(=O)[C@@H](NC(=O)CNC(=O)[C@H](Cc1c[nH]cn1)NC(=O)[C@H](CO)NC(=O)CCc1c[nH]cn1)[C@@H](C)O)[C@@H](C)O)C(C)C)C(=O)N[C@@H](Cc1c[nH]c2ccccc12)C(=O)N[C@@H](CC(C)C)C(=O)N[C@@H](CC(C)C)C(=O)N[C@@H](CCC(=O)O)C(=O)N[C@H](C(=O)O)[C@@H](C)O)C(=O)O)C(=O)O)C(=O)O)C(=O)O", "notes": "as for B2"}, "B5": {"name": "N^ε20-[(4S)-4-[[(4S)-4-[[(4S)-4-[[(4S)-4-acetamido-4-carboxybutanoyl]amino]-4-carboxybutanoyl]amino]-4-carboxybutanoyl]amino]-4-carboxybutanoyl]-[Imp1, His3, … (peptide)", "peptide": "[Desaminohistidyl]SHGTFTSDYSKYLESRRAK([γGlu-γGlu-γGlu-γGlu-Ac])EFVQWLLST-OH", "SMILES": "CC(=O)N[C@@H](CCC(=O)N[C@@H](CCC(=O)N[C@@H](CCC(=O)N[C@@H](CCC(=O)NCCCC[C@H](NC(=O)[C@H](C)NC(=O)[C@H](CCCNC(=N)N)NC(=O)[C@H](CCCNC(=N)N)NC(=O)[C@H](CO)NC(=O)[C@H](CCC(=O)O)NC(=O)[C@H](CC(C)C)NC(=O)[C@H](Cc1ccc(O)cc1)NC(=O)[C@H](CCCCN)NC(=O)[C@H](CO)NC(=O)[C@H](Cc1ccc(O)cc1)NC(=O)[C@H](CC(=O)O)NC(=O)[C@H](CO)NC(=O)[C@@H](NC(=O)[C@H](Cc1ccccc1)NC(=O)[C@@H](NC(=O)CNC(=O)[C@H](Cc1c[nH]cn1)NC(=O)[C@H](CO)NC(=O)CCc1c[nH]cn1)[C@@H](C)O)[C@@H](C)O)C(=O)N[C@@H](CCC(=O)O)C(=O)N[C@@H](Cc1ccccc1)C(=O)N[C@H](C(=O)N[C@@H](CCC(N)=O)C(=O)N[C@@H](Cc1c[nH]c2ccccc12)C(=O)N[C@@H](CC(C)C)C(=O)N[C@@H](CC(C)C)C(=O)N[C@@H](CO)C(=O)N[C@H](C(=O)O)[C@@H](C)O)C(C)C)C(=O)O)C(=O)O)C(=O)O)C(=O)O", "notes": "as for B2"}, "B6": {"name": "N^ε24-[(4S)-4-[[(4S)-4-[[(4S)-4-[[(4S)-4-acetamido-4-carboxybutanoyl]amino]-4-carboxybutanoyl]amino]-4-carboxybutanoyl]amino]-4-carboxybutanoyl]-[Imp1, His3, … (peptide)", "peptide": "[Desaminohistidyl]SHGTFTSDYSKYLDARRAQDFVK([γGlu-γGlu-γGlu-γGlu-Ac])WLLST-OH", "SMILES": "CC(=O)N[C@@H](CCC(=O)N[C@@H](CCC(=O)N[C@@H](CCC(=O)N[C@@H](CCC(=O)NCCCC[C@H](NC(=O)[C@@H](NC(=O)[C@H](Cc1ccccc1)NC(=O)[C@H](CC(=O)O)NC(=O)[C@H](CCC(N)=O)NC(=O)[C@H](C)NC(=O)[C@H](CCCNC(=N)N)NC(=O)[C@H](CCCNC(=N)N)NC(=O)[C@H](C)NC(=O)[C@H](CC(=O)O)NC(=O)[C@H](CC(C)C)NC(=O)[C@H](Cc1ccc(O)cc1)NC(=O)[C@H](CCCCN)NC(=O)[C@H](CO)NC(=O)[C@H](Cc1ccc(O)cc1)NC(=O)[C@H](CC(=O)O)NC(=O)[C@H](CO)NC(=O)[C@@H](NC(=O)[C@H](Cc1ccccc1)NC(=O)[C@@H](NC(=O)CNC(=O)[C@H](Cc1c[nH]cn1)NC(=O)[C@H](CO)NC(=O)CCc1c[nH]cn1)[C@@H](C)O)[C@@H](C)O)C(C)C)C(=O)N[C@@H](Cc1c[nH]c2ccccc12)C(=O)N[C@@H](CC(C)C)C(=O)N[C@@H](CC(C)C)C(=O)N[C@@H](CO)C(=O)N[C@H](C(=O)O)[C@@H](C)O)C(=O)O)C(=O)O)C(=O)O)C(=O)O", "notes": "as for B2"}, "B7": {"name": "N^ε16-[(4S)-4-[[(4S)-4-[[(4S)-4-[[(4S)-4-acetamido-4-carboxybutanoyl]amino]-4-carboxybutanoyl]amino]-4-carboxybutanoyl]amino]-4-carboxybutanoyl]-[Imp1, His3, … (peptide)", "peptide": "[Desaminohistidyl]SHGTFTSDYSKYLEK([γGlu-γGlu-γGlu-γGlu-Ac])RRAQEFVQWLLST-OH", "SMILES": "CC(=O)N[C@@H](CCC(=O)N[C@@H](CCC(=O)N[C@@H](CCC(=O)N[C@@H](CCC(=O)NCCCC[C@H](NC(=O)[C@H](CCC(=O)O)NC(=O)[C@H](CC(C)C)NC(=O)[C@H](Cc1ccc(O)cc1)NC(=O)[C@H](CCCCN)NC(=O)[C@H](CO)NC(=O)[C@H](Cc1ccc(O)cc1)NC(=O)[C@H](CC(=O)O)NC(=O)[C@H](CO)NC(=O)[C@@H](NC(=O)[C@H](Cc1ccccc1)NC(=O)[C@@H](NC(=O)CNC(=O)[C@H](Cc1c[nH]cn1)NC(=O)[C@H](CO)NC(=O)CCc1c[nH]cn1)[C@@H](C)O)[C@@H](C)O)C(=O)N[C@@H](CCCNC(=N)N)C(=O)N[C@@H](CCCNC(=N)N)C(=O)N[C@@H](C)C(=O)N[C@@H](CCC(N)=O)C(=O)N[C@@H](CCC(=O)O)C(=O)N[C@@H](Cc1ccccc1)C(=O)N[C@H](C(=O)N[C@@H](CCC(N)=O)C(=O)N[C@@H](Cc1c[nH]c2ccccc12)C(=O)N[C@@H](CC(C)C)C(=O)N[C@@H](CC(C)C)C(=O)N[C@@H](CO)C(=O)N[C@H](C(=O)O)[C@@H](C)O)C(C)C)C(=O)O)C(=O)O)C(=O)O)C(=O)O", "notes": "as for B2"}}, "note": "*1 amine or outer side, *2 acyl side, *3 side chain or, on linkers, in order; H or OH if unused. Side-chain parts run from the residue outwards. [ ]: non-standard residue; d: D form. The star is where a group is joined. γGlu = O=C(O)[C@H](CCC(=O)[*:2])N[*:1]; Desaminohistidyl = O=C(CCc1c[nH]cn1)*; Aib = CC(C)(N)C(=O)O"}
{"target": "T1, human glucagon receptor (human, UniProt P47871 26-477)", "T1 sequence (P47871 26-477)": "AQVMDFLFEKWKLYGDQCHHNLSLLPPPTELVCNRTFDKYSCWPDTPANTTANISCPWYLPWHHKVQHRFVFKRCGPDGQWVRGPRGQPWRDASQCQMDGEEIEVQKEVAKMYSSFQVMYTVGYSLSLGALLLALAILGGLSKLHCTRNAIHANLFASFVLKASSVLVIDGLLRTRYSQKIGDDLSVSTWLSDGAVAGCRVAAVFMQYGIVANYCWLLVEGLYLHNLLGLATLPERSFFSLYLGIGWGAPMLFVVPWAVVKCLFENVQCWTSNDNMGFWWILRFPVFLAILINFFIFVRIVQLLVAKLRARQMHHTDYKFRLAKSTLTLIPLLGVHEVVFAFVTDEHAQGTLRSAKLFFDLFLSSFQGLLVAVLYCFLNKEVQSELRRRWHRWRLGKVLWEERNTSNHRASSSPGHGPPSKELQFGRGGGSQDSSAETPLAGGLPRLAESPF", "test": "cell-based or functional assay", "units": {"EC50 hGlucagonR (pM), CRE luciferase reporter in BHK cells": "pM"}}
{"binder": "B1", "EC50 hGlucagonR (pM), CRE luciferase reporter in BHK cells": 5}
{"binder": "B2", "EC50 hGlucagonR (pM), CRE luciferase reporter in BHK cells": 4.7}
{"binder": "B3", "EC50 hGlucagonR (pM), CRE luciferase reporter in BHK cells": 12}
{"binder": "B4", "EC50 hGlucagonR (pM), CRE luciferase reporter in BHK cells": 17}
{"binder": "B5", "EC50 hGlucagonR (pM), CRE luciferase reporter in BHK cells": 41}
{"binder": "B6", "EC50 hGlucagonR (pM), CRE luciferase reporter in BHK cells": 4}
{"binder": "B7", "EC50 hGlucagonR (pM), CRE luciferase reporter in BHK cells": 105}
{"target": "T1, human glucagon receptor", "test": "displacement of 125I-glucagon from BHK membranes with human glucagon receptor (SPA), Assay (II)(b)", "units": {"IC50": "nM"}}
{"binder": "B1", "IC50": 1.8}
{"binder": "B2", "IC50": 1.8}
{"binder": "B3", "IC50": 6.2}
{"binder": "B4", "IC50": 8.7}
{"binder": "B5", "IC50": 7.6}
{"binder": "B6", "IC50": 0.9}
{"binder": "B7", "IC50": 24.4}
